# Laboratory results taken from the DeepSol protein solubility set.
# Test: soluble on expression in E. coli; label from the status in PepcDB or PDB records
row,Sequence,soluble on expression in E. coli
1,MLIEMWSPVFKKHGEIREPICFHHGLNVIMGMDLADNSIGKSSSLLAIDFIFGGNSYLKSIAVKKLGDHPIYFCFQFEKKFYFSRDTANPDIILVCDKSYSPTGETMDLGIFLNKLKKRYHLDSPELSFRLAMSGFFRIAGKSNQNTDFPLQVYSSQKSSESITTLIQLFNLYDNIARYKERLKDKSDQLTTFRNARRYAFISNLVGGKKQFEANVSEIKRLEYDLAHLQDTHQDKIDSDDI,not soluble
2,MLIGIDVGGTTTDAVLIRNGEVYSTAKVPTEPGDLLKSLLGALDEVSRGVPPEQFERVVFSTTVITNLIAEGKTERVALLLIPGPGVNPASYVFPDSFCIKGAMDYRGREIQPIDEEEVRGTVSRIRDQGFLRVAVVSKFGQRNPSHELRIEEIIREMH,not soluble
3,MLIHMKSRKMNLNKLEDGGSWFSRLKQFLQGEPQNQEELVSLLRDAQIRSLINSETLAMIEGAILFSKMRVRDIMLPKNQMVCINKDDDFKHIISIVTQTGHSRFPVTGENSDEVVGILHAKDLLKYQPENMESFDLLDICRQVTFVPESRRLDSLLSEFRSNRNHMAIVVDEYGEVSGFVTIEDIIEQIIGDIEDEFDIDEDAYIKTHEGHCYIIKAHTPIEEFNEQLNADFSDETYDTIGGIVLNKFGYLPQRGEVIIIDDFEFKVLNADSRRIKLLECLDKRSPEKLNSTVEG,not soluble
4,MLIISNAVHLPDHEIELNAIRAQGAGGQNVNKVSSAVHLRFDIQASSLPPFYKERLLALNDQRISGDGVVVIKAQQYRTQEQNREDALERLAELIRSVAKVQKARRPTKPTRGSQKRRLDGKAKRGAVKAGRGKVDFLEHHHHHH,not soluble
5,MLINEYRPGAGIGWHRDKPHFEDVAGISLLAPCSFRLRRKSGDRWERRTIVVEPRSAYLMTGPSRTEWEHSIPPLAEHRYSITLRTLRSQNPLEHHHHHH,not soluble
6,MLIVKTLVIIPTYNEAENIRPLVEDILDRYPEGLELLVIDDSSPDGTAGIVKAIMKNEPRVMLLSRPSKLGLGTAYLTGFRYALERGYERVIEMDADFSHDPASIASLIKAMDGADMVIGSRYMNNTVNVVNWPLSRLILSKSASIYSRWITGMPVSDPTSGFKCISAKALRFIALDRVRSQGYSFQIEIDFRVWKKNLVIHEVPIIFVDRSVGKSKMTRKNIVEAVWMVWWLKFLSIIGRLLEHHHHHH,not soluble
7,MLKFISLLGTSKYVPCNYFIKNREELKINDCCYVQKAILDILRQENVIPDKIIIFTTDEAHVSNWENNKWNNKGDKNDVQEIEDELQKRPGLKGELEKYKELTGADFKSVRIPNGIREEDLWEIFRTIFDEIDENDEIIFDVTHSFRYLPMLVFIVINYARVVKKCKLKSIYYGAFEVLGTPETVAKIPLEERNAPIFDLTSFVDLFDWTMGIDRYLNTGDVSVVHELTDIQIKRVNKEKLKFISKSEQGVDPKTLFMDSRQLRALSESMKNFSDVVFTCRGLELTRVACELKEKLREVTESASRQHIIPLMPVLEMMKERFDKFSKDNDYINIIETARWCADNKMYQQGLTILEEGLISFGCEKLGYENLSDKIDLDKRRKIGSYAFVVSNDFGRKSDNKKEKIPLLNIKSDVITDLLILIDEISSIRNDINHAGWRKDPSEAGAFGEQLKNFISRAEKIISPENFSTESDKCINNDSVDKEKKMLLILSHKLVPKQEEEARQRFGISKFLPMPNELHNKWSNIPPELEDLRDYLNDILEWIDLNAQEGDYALIQGDYGATFIAVNHCLAKGIIPVYSTTHRIVREEKNEDKVISVREFEHVILRKYEN,not soluble
8,MLKGILYIIGIYQRYLSPLKGPTCRFYPSCSRYAHESLTRYGLVKGLWLTTIRILKCHPFHPGGVDPVKLEHHHHHH,not soluble
9,MLKIGVLVSGRGSNLQAIIDAIESGKVNASIELVISDNPKAYAIERCKKHNVECKVIQRKEFPSKKEFEERMALELKKKGVELVVLAGFMRILSHNFLKYFPNKVINIHPSLIPAFQGLHAQKQAVEFGVKFSGCTVHIVDESVDAGPVIVQAVVPVLPEDDENTLADRILKWEHKILPQTVQWFAQDRIIIDGRKVIVKDATYGTLPVNPALEIF,soluble
10,MLKINYPIKGACQCGQVTYQLLAAPLMVAACHCRECQKLSTSAFSITAVVNATDVVFSGEMSDWSRLADNGNTNGAKFCPCCGNRIYHFNPNFPDKIKLKPSTLEDTRVIQPTMHIWTSEKQAWFKLPLDLPSHEKQPF,not soluble
11,MLKKRELQDCHALYELMVHPDVFPFVRQKASSYEEFLFMTKQLMEAEERGELISRTILDEWGNPIGTISLFDIQDGAGFLGTWLGKPYHGLGYNRRAKEAFFHELFYELSIETVFLRIRKVNVRSIKAAEKLPYVTPANETRRALLEQIGADVYNLYEITKDNYTLYTMRHPSFAHNEEQRKEA,not soluble
12,MLKRRQPKYCSFMDSIDNSTTIIRKNLNRFIRELTDDGKLDFESIPYQNLQKEVANQDEEGCENVIEVLLDTTSRSGCPDRKLILQLFNSFFLQFPIFRENLLNDPSEFLELMFETNPIRNPLPGSKKHGNELKVEAITVIKSWEKEKCVKNDARMKCLVVTLKKTKFVDYENGAKKIEAERKRKKILEERKMKMIENSVNVYSSKYHEIKNDAETLSMELTTTMQMLVPSFTTADPEVPSTSTSTPSAISDSKSFEIFIPDLTPEISVSSENDAIVEAFLGAKLSLIHRVQTLRKLVKRLQLLKQPGEKLAQEIIDYRDGIKNLVLKADELRIINPRPPKNKRKKSDDDFIDVDISIDDILMVQYAEKLEVDVKSKDESEKITESPEKHKIEMKNEKPVKIKTVPFGLDLKYWGEERKDVEVPKNNADCHRFWRSADEGTVAGKAQQSIYTQRQYTFIGKAPDNRKVCLAKMKSGKLCPRKDYYTCPLHGKIVDRDDEGRPINEEDRLEENYRKEQNHLKEADKIRQMIEKEYESKTKRRKKHDVDTTASEDVRNRLQKKLLDPKTIQRVSADLDASRKNRLEKNFGQQFSHF,not soluble
13,MLKSAFILASAPLFFTLAACSGESGTQVNTASAPATQVSRNIGSTVKNRGKLICGVSGELPGFSFVGTDAKYSGIDVDVCRAVTAALFDNPDAVEFRNLNTKERFTALQTGEIDLLSRNTTWTMSRETSVGLQFAPVIFYDGQAIMVSKNSGIKSLADLKNKAICTQTGTTTEQNLADQMRKRSITYKPVVFEDVNITFATYAEGRCDGVTTDRSALISRRTTLPKPEDNIILDELLSSEPLAPAVAKGDPQWNDIVKWVVYSLVKAEELGINSQNIAQLTNSNDPDIKRFLGTEGNLGEGLGLTNDFAARIVKHVGNYGEVYDRNLGGKTKLNLPRGQNQLAIKGGLLYSPPFR,not soluble
14,MLKYRDEKDISACGIFGIMDRKGRRFNGKLVIEAMSQMKVRGNGLGAGFAVYGLYKKFKEYYAFHVMIYDKDGREKLEKFLSTNFDIVYVDEIPVNDKAKVIDPPKFMRYFVAPRKKGTEKVLNDDDFVVKKVMYINRAIPGVYVISSGKNMGVFKGVGFPEDIADYFMIEEYKGYIWTAHTRFPTNTPGWWGGAHPFSILDWSVVHNGEISSYGTNKRYLEMYGYYSTLQTDTEVITYIFDLLVRRQGLPIEVVSKILAPPMWEEIDRMPEKEKKFYKALRMVYSPILLNGPWAIIVARHGEMIGLTDRIRLRPLTVAEKKSFLIISSEEAPIRYLFRDVDRIYTPYGGELVVGKLEEDIKKFVGESQ,not soluble
15,MLLFSRQGKLRLQKWYMAYPDKVKKKITRELVTTILARKPKMCSFLEWKDCKIVYKRYASLYFCCAIEQNDNELLTLEIIHRYVELLDKYFGSVCELDIIFNFEKAYFILDELLIGGEIQETSKKNVLKAIASQDLLQEDETPQSFFDDHGLG,soluble
16,MLLKTIYCKVEEEKKKLFSNAQEKWSDIRHLDGFHGQFGGWYEDEACVFTLWEDRSTYQSFMNGAHDTIYLNSNQEDTFLSCEIELFQTLYDITDTHLKDVVTEGSFVRVAICDVKVEKEKYFLQKQETIWNKGMEKAKGMLGGVVGKSLKNENRYIVLTYWKDEQTHQHYVEEIFPDLYKLANIHEDIEEIKGKQAVCKEEWLVY,not soluble
17,MLMDGHTHTELCPHGSGEATEKMIQRAIQLGFQRYCITEHAPLPPAFRDQYEGTPAGYTEASLRENQVADYLALANGLKTKYAGQIEISVGFEVDFLPEHVAWTRDFLNTYGPRTQESILSVHFMRGLRQHFWCVDMSTDDFAAGFGQWLKTPQRVFEQYYQTVLASVQADLGPYAPQRIGHMSLVRKYQDYFGLTEPLDVHNLQLVDQTLALVKQQRRQLDLNLAGLYKPYCNDFYPGEQILQRAQKLDIPLVYGSDAHDIASVGRGYHLIKKLIEGLEHHHHHH,not soluble
18,MLNIFCPHCGELRSEEEFHAKGQAHIPRPLDPNACSDEEWGDYMFFRDNPRGLHHELWVHAAGCRKYFNVTRHTVTYEILETYLIGEQPSVVADGEKKPAVQGEPA,not soluble
19,MLNNKRLFTSESVTEGHPDKIADQVSDAILDAILKDDPNARVACETTVTTGMALIAGEISTTTYVDIPKVVRETIKEIGYTRAKYGYDYETMAILTAIDEQSPDIAQGVDKALEYRDKDSEEEIEATGAGDQGLMFGYATNETETYMPLAIYLSHQLAKRLSDVRKDGTLNYLRPDGKVQVTVEYDENDNPVRIDTIVVSTQHAEDVTLEQIQEDIKAHVIYPTVPENLINEQTKFYINPTGRFVIGGPQGDAGLTGRKIIVDTYGGYARHGGGCFSGKDPTKVDRSAAYAARYVAKNIVAAGLADQCEVQLAYAIGVAEPVSIAIDTFGTGKVSEGQLVEAVRKHFDLRPAGIIKMLDLKQPIYKQTAAYGHFGRTDVLFPWEKLDKVEELKDAVK,not soluble
20,MLNSAPSETEKSETEGSETKESNLVIEDEEERKECTSVKKTEGHFTRQVDQVTKYDKDYIWSLVHSQLREGGLSQAASDLVMSYFEERYAYALEHIRFARTAEAIAEYVFNGVLSEWTKQLR,not soluble
21,MLPDKGWLVEARRVPSPHYDCRPDDEKPSLLVVHNISLPPGEFGGPWIDALFTGTIDPDAHPFFAEIAHLRVSAHCLIRRDGEIVQYVPFDKRAWHAGVSNYQGRERCNDFSIGIELEGTDTLAYTDAQYQQLAAVTRTLIASYPAIADNMTGHCNITPDRKTDPGPAFDWPRFRALVALSSHKEMT,not soluble
22,MLPERVLEILREMKRERIKGASWLAKKGAEAFLTLAEELDESLLEDAIMELREEVVKVNPSMASLYNLARFIPVTNRRDILKSRALEFLRRMEEAKRELASIGAQLIDDGDVIITHSFSSTVLEIIRTAKERKKRFKVILTESSPDYEGLHLARELEFSGIEFEVITDAQMGLFCREASIAIVGADMITKDGYVVNKAGTYLLALACHENAIPFYVAAETYKFHPTLKSGDVMLMERDLIRGNVRIRNVLFDVTPWKYVRGIITELGIVIPPRDIQ,soluble
23,MLPLPTWTLSDVDAILVLSFGGPEGQQDVIPFLENVTRGRGIPRERLEEVAVHYRHFGGISPLNALNREIIGNIIEVLSSRGLEIPVYFGNRNWHPFVNDTAEKMVRDGVRNVAVFATSAWGGYSGCRQYDEDIVRMNHHLEEKELPTLNCLKLRQFFDHPLFIEEMSSVVFQAARELGISALDELQLHQKVVFTAHSIPEVANENSGRKEDGPLYSRQVYEAASLVAKHLGISQERYDVVWQSASGNGQIPWLEPDILDYAKCQHDEGVSELVVAPIGFISDHMEVVWDLDHELQDLASDLGMSISRAATVGHTDSFATMIVELVEESLGVKPHQNLGTVPSKGCSFNGEPCEVNCCKPVQRPHSAKA,not soluble
24,MLPNVAVEFDENSIFRSLGKGNLTFREAFEEIIKFIEADTNSSYRISIGTDSHVGNGTLFVTCIHVHRIGKGAIGFLHKSLMSRPIRNLREKIYMETCMSLQLAYLFDEEKIDRIYKALGKNGKSPTKGVTFEFHIDIGKRGETKALINEMVGMVSGLNFIPKIKPDSYCASCFADRYTKAI,soluble
